Laboratory results: the domain aggregation screens of Martell et al. (2025)

Assay: soluble fraction after stress (log2 fold change); higher = more stays soluble; pooled small domains, quantitative proteomics
Conditions: stress: pH 4
Summary of the method: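 After pH 4 stress, pooled custom libraries of small protein domains were quantified with high-throughput quantitative proteomics. Aggregation propensity is taken from the fold change in each domain's soluble amount following the acid stress. The scale is log2, where higher values mean more stayed soluble.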

Sequence	soluble fraction (log2)
HMREIKSNEILLEVENLKNSEFFNDINFNIKKGEIVGFSGLIGAGRTELALTLFGYYKAESGKVIQ	-0.291
HMQELKWERNYKLVQDYIKQYGVLPSKNTKYANVSIGRWLTNQHELVKEDNLAPERFEKIKELDT	0.303
HMSTMVEIPNVVGMTIKEAKEALGNLGLSISKISGSNEDSAIVTEVSPAPGSSVKRDESITLVGQPK	0.12
HMEKGLQYRRTDRAIMNAFIKLVNQGSFEKLTVQEILDEALVSRNTFYAHYRDIYDLMDALSN	-1.37
HMASFASRAEEVMTKLLANGQPRIKEVADAMHLSSRTLQRRLEREGVSFAELLDRLRKRLAHDMLAHS	≥ 0.43
HMTSVAGIERFLASGAIKGMGAATAKLIVEHFGADTLNMLDMYPERLTEIKGIGPKKATAIIEGYRELS	-0.595
HMKNYYSILGVTPDSSEAEIKSAYRRLARKFHPDVNPDGASRFKDISEAYETLSDAKKRFQYDTINGF	0.234
HMLSYNINEESKSSIMNVNVLKNNFASIDVEKLQNIIFTTFKKYNYYLNDFSSMNLLLHLLIIVDREL	-0.172
HMDMAENEEYKVIMGQAQQLAEQFFPADDNTRRIMLGQLKLENYSLYLLTKQILDEATKGQAAAAN	-0.651
HMFKINQKVKLIAPLPYLKTSENMPMLRPPDLVAIDEIGEVLSLKSPETVEVRFRRGSFLIDIDKLEKVD	-0.996
HMVDWTFPVLVKDVVMMGRYGHMGFLRIPGKKDFESVDNALAKVGMVEYAKQQIGELSGGQR	-0.0255
HMYGLSFLIGFTVVDRTYGDIGKVTAIDDSTVNTLMAVGDRLIPAQEAFITKIDNTKKIIYTQLPEGLL	-0.512
HMEALASESVKDKIRKIIDSEDPSRPMSDQRIKEMLKAANIDIARRTVTKYREAMNILSSTKRRQV	-0.168
HMVTVSAVNITPKGHTTVGFTDRSVNPPSNYYLRVGESADGWTVKDADFDDEIATLEKDGVAITLKL	-0.548
HMPLTPATADAGRFVKQDRKYIRLLAKRYNFTHGDIKSEIDRVSAVLSSNGIDRVPLFLYKEYLEQYLAG	-0.924
HMFYPIAHTLTKLNIRSGPGEQYQKLATFENNHDLVVLTQQNEWVQVRGKSDEQVIIGWVHSSFLSPT	-1.33
HMKETKVIHVHLIFKKTSRFFGSISAIYSEFTAEEIGITEETLRHKGLSDGVSFATKKAIIQQGVLIR	-1.45
HMLAIELDDKPGSLLRALEIFAKRNLNIEYMYAFTEKRGDKAVMIFKFSDIETAKKSLLEEGFN	-1.13
HMLPDAESFSYEVPYTKGDGGTYNYEGKIKAQNADAARDEIIRQAQVYFQMNPQFTPDYPSTTITSLD	0.0666
HMGPLYARVKAIVLARIMGGDWPPGTALPAEMELARALGVSQGTVRKALDALTAEQVVVRRQGSGTYVAE	-0.158
HMAAVSSHAVKQRIRSLIQAEDPASPLSDEALRLALSALGVEVSRRAVAKYRTSMDIPASSQRKK	0.238
HMALQDKYKQLVDTATASGVANLQVREQDGVLYIDGEAPSGSVKDQLWDIYGKIDPNFLSGDVVMNINV	-1.12
HMNVKQALLELMQRKPELTGSAIARAIGYSPAVISQYLKDGYPGDVVKLTTLIGDFIRRIDEKERS	-0.48
HMSYLELENLAEDIKATYDNLSTDLREVFRLSDIEGLSYEEISNKMNIPIGTVRSRLHRARETLLRIFNN	-1.22
HMGLSASVIQMFADLGYTSEGRSTKEMITDYQIDHSIIKNSTEDGAGTYGPRTKASLSTVHAQYI	-0.535

Sequence	soluble fraction (log2)
HMASRTLSYSEFMSRVDSGDVTSVTLDGERIIMRTSNNQEFLSIKPEGEDISERLLAKNIEVRAEAQQ	-1.58
HMGEESIAELISNPKLSDAKRTVILDLLSRGLTVDQIKPYIQSDDPYTAEQLQFELYKLFFTQI	-1.34
HMPYFLKQSNTRSKGLYLQIYHSFYVPGKGSRNKSYKAIGYVSELIKNGIEDPITYAKNLVDELNNNSSTP	0.226
HMEISEILNPPLVTAMAERYPEVDVSYYRDKYILYYESREHKITDHRRNFEKWLLVESQKEEN	-1.66
HMDYYDTLGVPRNASQSDIKKAYKKQSMQHHPDRTGGDDTKFKDVNEAYQVLSNSEKKQMYDQFGTA	0.0201
HMSSSTFVGRVAVITIGEARQNSPAEARFKDRHGTTHYVMVEPMEDVVFKQGDKVLLVESAGATFKVIEPA	-0.00194
HMAYQQITIKANVVNVRQGPGLSYDVMSQANKGETMNVISQKNNWYQVRLSGDKIGWVASWLVDNT	≥ 0.43
HMGIMSEITHRVLRLLGLLESRSTWTGSDLAERLGVTQRTIRRDVIRLRELGYQVDSVQGLDGGYRMS	-0.0721
HMHMSKKLADSIISLRRKHGFSQEQLAEKIGVTRQAISNWERGTATPDVETLNLIAKLFDMDLLAIINGE	-0.514
HMIKEVEYSQFLQMTDQGEVGKVEINEQENSILFTDKAEKNIYKTGMVEDAELSMRLYEAGIPFSGQI	-2.29
HMTVLDYNENVLSKVMNAAEINDSDKEAFIAFAKDYNSDDNLYLKKEELETAAGAWNARNVE	-0.552
HMDASVTIEQVERMVQANVSDDVIISQLQGRGAAQNLSTDDIINLTQKGISAEVIKAYQSAG	-0.934
HMKLRSIQEQVQYLEKVDNQKAMQIILNMNDKASAVQILRNMKKEKAAAILAQMDPLQAAQILEDLA	-0.132
HMKEDNPIVLINLQAKEGEWVFKGTGLPYVGKYHQHKNGEYMIGIGVLNLNHELKPDEIIIPNPNK	0.0576
HMVINKRELNVLSIYSRGSEKRAIILFPTGQTKLVKVGDTLNGGRVAAIGTTEIRYIKGGNNLVLKIPQ	≥ 0.43
HMGQTYTITINPTPADAKVIIDGVATNSVEAIDGRTLIWSVSKPGYLTKSGNYTVTGKNETLNIVLKEDPD	-0.283
HMAAGKGVTTGSVRLRKGSNTDSAIIATLKKDTELILYGKKDGWYSVKTSDGTEGFVSSKYVKVTEAY	-0.297
HMRAPETEITYTEFKTALRAGQIETATVGIEQISGKLTDGDLYRTVRVDDPDLLKDLEANHVNAAGRV	-0.0386
HMKYSNDFDKVSYSLGLSIASNLISSGVKTLNAEAFNDGLATVFEGRMPEINPDEANKILQNFFEGLQKE	-0.632
HMITLYDLLGVSKTASSQEIKTAFKKKALQYHPDKNDGNPDKEEIFKRINMAYQVLGQPQSRANYDFSITP	0.0886
HMLKLYILTDGKNYVMDDPIHPGRVMYSTSPVNAKKFTFKQARALLNNKSKKLSWIRSFNMVDDSSGEKI	0.417
HMITVEAPMPGKVLSVNVKAGDKVEAGDVLLILEAMKMQNEIMAPEDGTVSDVRVSAGDTVATGDVMVV	-0.33
HMSGRIWTDNYGRTIEADVIKVNINRTVLLEFTDKKTKTVSFDTFISKDIQYLEYLLTRRNRGKL	-1.14
HMDAIDQDGNHMTFKRWGEQLQEAFQALEAYDTDKAKTILNELIKFPIDSDLNNALKGILSNIDEMMA	-0.68
HMNSKSDDELLSKTTSLLIHAAKIDENYTDKEKEIIKKTLIQLGVKESKADQIMLTAEINEE	-0.36

Sequence	soluble fraction (log2)
HMSSADIPFSRFIDDVEAQRVEKVTIDGVNVTGRYRSDGAAFKTIIPSQYDGLVPILRQNKVDITVKDA	0.41
HMTGRHEEAIQELKRTLELHPQKPKIFLLLGVSYLRLNNLKKAVEAFNTVLLLQPKNQKALTMLKEIKKR	-0.113
HMAVPMTPGELVGSRVRVLWWKDGRGEVVALARGHQATLPARSEEPLRTGADAVVLEADEGTLVVTS	-0.192
HMFIRINQTQNSPRKSVQIVESKRDGHKVRTKILRHVGIAMDDVELQKLKSLAQDIIAKMTVETENASKQ	0.176
HMAEPLEIGDTVRIIDGFYGGEIGVISELVNPDAKNAEFEQVRVRLDQDTELALPIHNVERVRL	-0.0894
HMYMKLSVKDAALFLSVSPETVYRWVKQEEIPYHTVNDQLRFNRAELLEWATARSLEVSPDLFVP	-1.53
HMTENQKNIDLIKIVSLLVHAAKIDENYTNKEKELIINFINNFSKENKQNIKSSEILEEAEKYEK	-0.0377
HMDRWTPLIVAVLIEGSHRFGELRSAIGGITPKVLTETLRSMERDGLVTRDQVPGVPPRVDYALTPLG	-0.434
HMSEITMMQMEIPEGHNWENRLVKDVSMPTGSLAVMIKRHGETLIPGGDTRILAGDTIVLSVPAYESG	-1.03
HMASELQQVQALLESQRYNEALILIETTIGKGASESTELLFARADVFASSGRHDEAEQAYREL	-0.45
HMYEVDGLGIRIAQLRKKQDLTQEAFARTLGVSPQAVSKWETGIGYPDITLLPQIAKELGVSIDQLFGRN	0.0751
HMDGLAEQLFNILREELESGDYKPGQKLMSESALAQKYGVSRLTVRAAIARLSALDYVETRNGEGSFVKKR	-0.0881
HMPREQQENVYLLEKAKRLYEEYLGDQRQTIGHALAQFERVLESQDPAAIRRAQKEFGEFLERYDG	-0.139
HMGEPLTVVAAAGGDRLDRWLAGQLAGRSRAEIQRWIEAGQVTLAGRSLKASYRLSAGDAIDVAIPPPE	-0.0638
HMNAEWMFDARKIPGLVMNYLRRIAVRAIEEKHYSPELVADLFGIDRTSIYDWLRKYRQQGEEALDTRKA	0.0142
HMPLTRSDVKRIQLWLMAHGYDIGSPDGVFGDKSNRAANAFLSQQGRSLETVTLGKLYDILEAN	-0.941
HMGTTTGKVNATGVNFRTGPSTSYSSMGKLGIDTAVTILGKSGDWYQVKVNSTGKTGYVFAKYITITSVV	-0.434
HMQIVPVDYSTFMQSIDDKTVDHVEIQSNQILYTVKDDHKKYKTGIMNDPTLAQRLMESGATFTQD	0.185
HMDYIGIQAAKEAALKDADISSEQAVFTMAELDNKNNIFYYQIMFTENGTEYRYDIDALTGVIIEKNHFF	-0.0659
HMGDEVAVTEILVKVGDTVEADQSLLTVEGDKASMEVPAPFAGVVKAIQVQLGDKVVTGSPIMLFEV	-0.88
HMNILAPFWERFGLSAFAAGNYDRAEGYFRKLEQKDPNSMSVLRNLGLILMAKGDAEGAEAYLLREEKL	-0.643
HMVDIQTGQKVRIHTSQFAGKIGNITALNVKSAELPNGIRTATASILMQSNENVMLPVSNFDIIE	-0.044
HMERLSVSMGDMVVFVRDAVEAFRGLVKEKGITLTFESKVEHFYMNYDHDKVYKVVNNLLSNAVKFT	-1.31
HMIIIMKMGADESQVQETIKRIKDLGFNTHLSKGENRTIIGVIGDVSSIDESDVERLRATPYIAEVVRVS	0.417
HMAIRPDAAVSSHAVKQRLQSLIRAEDPAAPLSDEALRLALSALGIGVSRRAVAKYRAEMGIPSSSQRKK	0.168
